In general, stoichiometry N refers to the number of molecules, sites or subunits per partner or assembly.

The results in this text go back to PMC2699502.

The target in this assay is EcoR124I S subunit (HsdS) (UniProt P10485).
UniProt P10485, sequence (P10485 whole entry): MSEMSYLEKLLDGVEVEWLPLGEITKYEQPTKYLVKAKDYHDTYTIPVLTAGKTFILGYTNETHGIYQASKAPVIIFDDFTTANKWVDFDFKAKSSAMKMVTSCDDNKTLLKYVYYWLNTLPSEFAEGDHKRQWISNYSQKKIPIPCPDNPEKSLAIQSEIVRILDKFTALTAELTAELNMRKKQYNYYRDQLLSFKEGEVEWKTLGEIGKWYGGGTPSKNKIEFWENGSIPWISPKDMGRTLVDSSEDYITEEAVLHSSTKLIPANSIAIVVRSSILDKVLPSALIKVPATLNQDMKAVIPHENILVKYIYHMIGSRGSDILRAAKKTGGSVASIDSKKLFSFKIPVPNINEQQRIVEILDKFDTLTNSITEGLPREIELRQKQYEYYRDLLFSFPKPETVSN

B1: EcoR124I R subunit (HsdR) (enzyme)
chain: MTHQTHTIAESNNFIVLDKYIKAEPTGDSYQSESDLERELIQDLRNQGYEFISVKSQSAMLANVREQLQNLNGVVFNDSEWRRFTEQYLDNPSDGILDKTRKIHIDYICDFIFDDERLENIYLIDKKNLMRNKVQIIQQFEQAGSHANRYDVTILVNGLPLVQIELKKRGVAIREAFNQIHRYSKESFNSENSLFKYLQLFVISNGTDTRYFANTTKRDKNSFDFTMNWAKSDNTLIKDLKDFTATCFQKHTLLNVLVNYSVFDSSQTLLVMRPYQIAATERILWKIKSSFTAKNWSKPESGGYIWHTTGSGKTLTSFKAARLATELDFIDKVFFVVDRKDLDYQTMKEYQRFSPDSVNGSENTAGLKRNLDKDDNKIIVTTIQKLNNLMKAESDLPVYNQQVVFIFDECHRSQFGEAQKNLKKKFKRYYQFGFTGTPIFPENALGSETTASVFGRELHSYVITDAIRDEKVLKFKVDYNDVRPQFKSLETETDEKKLSAAENQQAFLHPMRIQEITQYILNNFRQKTHRTFPGSKGFNAMLAVSSVDAAKAYYATFKRLQEEAANKSATYKPLRIATIFSFAANEEQNAIGEISDETFDTSAMDSSAKEFLDAAIREYNSHFKTNFSTDSNGFQNYYRDLAQRVKNQDIDLLIVVGMFLTGFDAPTLNTLFVDKNLRYHGLMQAFSRTNRIYDATKTFGNIVTFRDLERSTIDAITLFGDKNTKNVVLEKSYTEYMEGFTDAATGEAKRGFMTVVSELEQRFPDPTSIESEKEKKDFVKLFGEYLRAENILQNYDEFATLKALQQIDLSDPVAVEKFKAEHYVDDEKFAELQTIRLPADRKIQDYRSAYNDIRDWQRREKEAEKKEKSTTDWDDVVFEVDLLKSQEINLDYILGLIFEHNRQNKGKGEMIEEVKRLIRSSLGNRAKEGLVVDFIQQTNLDDLPDKASIIDAFFTFAQREQQREAEALIKEENLNEDAAKRYIRTSLKREYATENGTELNETLPKLSPLNPQYKTKKQAVFQKIVSFIEKFKGVGGKI
Molecule B1 gave a stoichiometry N of 1 R per S.

B2: EcoR124I M subunit (HsdM) (enzyme)
chain: MKMTSIQQRAELHRQIWQIANDVRGSVDGWDFKQYVLGALFYRFISENFSSYIEAGDDSICYAKLDDSVITDDIKDDAIKTKGYFIYPSQLFCNVAAKANTNDRLNADLNSIFVAIESSAYGYPSEADIKGLFADFDTTSNRLGNTVKDKNARLAAVLKGVEGLKLGDFNEHQIDLFGDAYEFLISNYAANAGKSGGEFFTPQHVSKLIAQLAMHGQTHVNKIYDPAAGSGSLLLQAKKQFDNHIIEEGFFGQEINHTTYNLARMNMFLHNINYDKFDIKLGNTLTEPHFRDEKPFDAIVSNPPYSVKWIGSDDPTLINDERFAPAGVLAPKSKADFAFVLHALNYLSAKGRAAIVCFPGIFYRGGAEQKIRQYLVDNNYVETVISLAPNLFFGTTIAVNILVLSKHKTDTNVQFIDASELFKKETNNNILTDAHIEQIMQVFASKEDVAHLAKSVAFETVVANDYNLSVSSYVEAKDNREIIDIAELNAELKTTVSKIDQLRKDIDAIVAEIEGCEVQK
Molecule B2 returned a stoichiometry N of 2 M per S.
